Results as given in US20140243256A1 (ADMINISTRATORS OF THE TULANE EDUCATIONAL FUND, published 2014).

Target: T1, Pichinde virus (PICV) glycoprotein spikes on purified virus (Pichinde virus (CoAn 3739), UniProt P03540 59-273; P03540 2-58)
T1 construct: also called monomeric or oligomeric glycoproteins; GPC
T1 sequence 1: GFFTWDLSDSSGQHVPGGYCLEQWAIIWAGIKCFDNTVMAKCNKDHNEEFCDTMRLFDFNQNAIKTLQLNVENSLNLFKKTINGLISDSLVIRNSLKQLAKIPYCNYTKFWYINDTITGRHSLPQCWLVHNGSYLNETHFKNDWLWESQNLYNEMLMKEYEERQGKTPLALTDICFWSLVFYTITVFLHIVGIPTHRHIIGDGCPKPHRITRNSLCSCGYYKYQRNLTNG
T1 sequence 2: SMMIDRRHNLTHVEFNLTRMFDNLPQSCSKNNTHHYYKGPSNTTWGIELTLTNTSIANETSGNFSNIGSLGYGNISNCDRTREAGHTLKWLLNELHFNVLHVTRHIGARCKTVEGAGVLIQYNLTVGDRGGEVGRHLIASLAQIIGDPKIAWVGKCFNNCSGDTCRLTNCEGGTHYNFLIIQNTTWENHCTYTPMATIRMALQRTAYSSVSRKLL
T1 sequence 3: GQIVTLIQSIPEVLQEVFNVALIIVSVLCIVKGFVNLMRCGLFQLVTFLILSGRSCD
Test: glutaraldehyde crosslinking of PICV with peptide

LNLFKKTINGLISDSLVIR (TAMRA conjugated (position of the dye not stated), also called TAMRA-peptide) [TAMRA-conjugated Peptide 1]
binding result: no binding
